Assay results: PMC10538557, “Vps60 initiates alternative ESCRT-III filaments” (The Journal of Cell Biology, 2023)

T1: Vps2 (UniProt P36108 1-232, TFP-AlexaFluor-488, TFP-Atto-565 or NHS-Atto-647N label, by experiment; labeled proteins were mixed 1:1 with unlabeled proteins)
T1 construct: Vps2, ESCRT-III subunit (human homolog CHMP2A); The yeast protein is surmised from the yeast nomenclature; also called Alexa488-Vps2; Vps2-Alex488
T1 sequence (looked up): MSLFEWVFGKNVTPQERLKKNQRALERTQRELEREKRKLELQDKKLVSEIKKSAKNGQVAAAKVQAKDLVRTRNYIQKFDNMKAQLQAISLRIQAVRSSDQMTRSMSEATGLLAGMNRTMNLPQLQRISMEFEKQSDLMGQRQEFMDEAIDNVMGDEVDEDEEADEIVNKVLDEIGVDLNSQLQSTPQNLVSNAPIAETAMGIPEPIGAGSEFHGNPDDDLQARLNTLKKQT

B1: Vps60 (natural protein, S. cerevisiae, UniProt Q03390 1-229, looked up)
chain: MNRIFGYGNKKSHDQLLQESNQSMNQAQQSLSNRISQLDTQIAQLNFQLQNIQKNLQRSNNKQPSLRKQALKILNKRKQLENMKDSLDSQSWSMTQAQLTNDNLQNTMITINALKQTNNAMKAQYGKINIDKLQDMQDEMLDLIEQGDELQEVLAMNNNSGELDDISDAELDAELDALAQEDFTLPTSENSLGNDMPSYLLGANAPPAFIDEEPNLDTEDKNKALESAQ
modifications: TFP-Atto-565 label (Atto565-Vps60) in the fluorescence assays; Alexa488-Vps60 also named; labeled proteins were mixed 1:1 with unlabeled proteins
notes: Vps60 (Mos10), ESCRT-III subunit of yeast; construct pGEX4T-Vps60; also called Mos10; Atto565-Vps60; source: Bl21 Escherichia coli (pGEX4T-Vps60), purified on GST-resin, on-column cleavage with TEV protease
B2: Did2 (natural protein, UniProt P69771 1-204, looked up)
chain: MSRNSAAGLENTLFQLKFTSKQLQKQANKASKEEKQETNKLKRALNENEDISRIYASNAIRKKNERLQLLKLASRVDSVASRVQTAVTMRQVSASMGQVCKGMDKALQNMNLQQITMIMDKFEQQFEDLDTSVNVYEDMGVNSDAMLVDNDKVDELMSKVADENGMELKQSAKLDNVPEIKAKEVNVDDEKEDKLAQRLRALRG
modifications: maleimide-AlexFluor-488 label where detected; labeled proteins were mixed 1:1 with unlabeled proteins
notes: Did2, ESCRT-III subunit (human homolog CHMP1B); The yeast protein is surmised from the yeast nomenclature; also called Alexa488-Did2; Did2-Atto565
B3: Vps24 (natural protein, UniProt P36095 1-224, looked up)
chain: MDYIKKAIWGPDPKEQQRRIRSVLRKNGRNIEKSLRELTVLQNKTQQLIKKSAKKNDVRTVRLYAKELYQINKQYDRMYTSRAQLDSVRMKIDEAIRMNTLSNQMADSAGLMREVNSLVRLPQLRNTMIELEKELMKSGIISEMVDDTMESVGDVGEEMDEAVDEEVNKIVEQYTNEKFKNVDQVPTVELAANEEEQEIPDEKVDEEADRMVNEMRERLRALQN
modifications: TFP-AlexaFluor-488 label where detected; labeled proteins were mixed 1:1 with unlabeled proteins
notes: Vps24, ESCRT-III subunit (human homolog CHMP3); The yeast protein is surmised from the yeast nomenclature; also called Alexa488-Vps24

Tests used:
Vps2 = target: T1, Vps2; experiment: recruitment on supported lipid bilayers, confocal fluorescence microscopy; SLBs covered with both Alexa488-Snf7 patches and Atto565-Vps60, incubated with Atto647-Vps2, Vps24 and Did2; time-lapse; details: both partners purified
[1] = target: the molecule itself; experiment: negative-stain electron microscopy; LUVs (DOPC:DOPS 6:4) in 20 mM Tris, pH 6.8, 200 mM NaCl, 1 mM MgCl2, incubated with 250 nM Vps60 for 1 h at 4°C, alone or with subsets of ESCRT-III subunits (Vps2 and Vps24; Vps2, Vps24 and Did2); filaments imaged after uranyl acetate staining
Vps60 = target: B1; experiment: as above; details: both partners purified

Binder	binding result (Vps2)	binding result [1]	binding result (Vps60)
B1	binds	binds	–
B2	–	–	binds
B3	–	–	binds
